This is an account of results in US12692294B2, “Engineered NRG-1 variants with improved selectivity toward ErbB4 but not against ErbB3” (Amgen Inc., priority 2021, dated 2026).

Numbering of substitutions follows the chain as printed. In names and notes the source's numbering stands.

One experiment deals with T1, ErbB4 (Rattus norvegicus, UniProt Q62956).
T1 construct: forming the ErbB2/ErbB4 complex in cardiomyocytes and the ErbB2/ErbB3 complex in Schwann cells; endogenous in cells; host or cells: primary neonatal rat cardiomyocytes (Sprague Dawley pups, 0 to 4 days old)
The experiment can be described thus: In vitro phosphorylation of Akt in neonatal rat cardiomyocytes. The class given is cell-based. The following applies: for EC50: Akt (Serine 473) phosphorylation, neonatal rat cardiomyocytes, 15 minutes treatment, read-out: Cardiomyocyte (CM) (ErbB4) Avg EC50; for Selectivity SC/CM: ratio of EC50s Schwann cells/cardiomyocytes; for CM % Agonism AVG: top value of the Akt phosphorylation data points in cardiomyocytes, wild-type control 100. Here is the method: (§1) In Vitro Phosphorylation of Akt in Neonatal Rat Cardiomyocytes and Rat Schwann Cells by Neuregulin Variants
(§2) Specificity of neuregulin variants towards cardiomyocytes (ErbB4) versus Schwann cells (ErbB3) was tested by measuring Akt activity generated by formation of the ErbB2/ErbB4 and ErbB2/ErbB3 complexes. Upon activation by neuregulin, the ErbB4 and ErbB3 receptors dimerize preferentially with the ErbB2 co-receptor, forming the ErbB2/ErbB4 complex in cardiomyocytes and the ErbB2/ErbB3 complex in Schwann cells, both of which signal through the Akt pathway. Neonatal rat cardiomyocytes were isolated from hearts of Sprague Dawley rat pups at 0 to 4 days old according to manufacturer's protocol using the Neomyt kit and plated on Surecoat plates in NS media containing serum (all from Cellultron Life Technologies, Baltimore, MD). Rat Schwann cells were plated in Poly-D-Lysine coated plates with Dulbecco's modified Eagle's media (DMEM) supplemented with fetal bovine serum (Thermo Fisher) and forskolin (Millipore Sigma).
(§3) After a 24-hour incubation in a humidified incubator maintained at 37° C. and 5% CO2, cardiomyocytes and Schwann cells were washed with serum free media and incubated an additional 16 hours in DMEM supplemented with bovine serum albumin (Sigma). Both cell lines were then treated with titrations of the neuregulin variant molecules for 15 minutes, upon which cells were lysed in lysis buffer (Meso Scale Discovery (MSD)). For detection of Akt phosphorylation, lysates were added to the Multi-Spot 96-Well 4-Spot Phospho (Serine 473)/Total Akt plates (MSD), incubated according to the manufacturer's protocol and read in the SECTOR Imager 6000 (MSD). For both cell assays, the percent phosphorylation of Akt was calculated by multiplying the phospho Akt signal by 2, then dividing by the phospho Akt signal added to the total Akt signal and then multiplying by 100. The phosphorylation of Akt data points were fitted using a log (agonist) versus response, variable slope (4 parameters) analysis in GraphPad Prism to generate EC50 curves. The CM % agonism reflect the top value of the data points.

The target of the next experiment is T2, ErbB3 (Rattus norvegicus, UniProt Q62799).
T2 construct: forming the ErbB2/ErbB4 complex in cardiomyocytes and the ErbB2/ErbB3 complex in Schwann cells; endogenous in cells; host or cells: rat Schwann cells
The experiment can be described thus: In vitro phosphorylation of Akt in rat Schwann cells. The class given is cell-based. The following applies: Akt (Serine 473) phosphorylation, 15 minutes treatment; for EC50: read-out: Schwann cells (SC) (ErbB3) Avg EC50. Here is the method: as §1, §2, §3

T2 sequence (Q62799 20-1339): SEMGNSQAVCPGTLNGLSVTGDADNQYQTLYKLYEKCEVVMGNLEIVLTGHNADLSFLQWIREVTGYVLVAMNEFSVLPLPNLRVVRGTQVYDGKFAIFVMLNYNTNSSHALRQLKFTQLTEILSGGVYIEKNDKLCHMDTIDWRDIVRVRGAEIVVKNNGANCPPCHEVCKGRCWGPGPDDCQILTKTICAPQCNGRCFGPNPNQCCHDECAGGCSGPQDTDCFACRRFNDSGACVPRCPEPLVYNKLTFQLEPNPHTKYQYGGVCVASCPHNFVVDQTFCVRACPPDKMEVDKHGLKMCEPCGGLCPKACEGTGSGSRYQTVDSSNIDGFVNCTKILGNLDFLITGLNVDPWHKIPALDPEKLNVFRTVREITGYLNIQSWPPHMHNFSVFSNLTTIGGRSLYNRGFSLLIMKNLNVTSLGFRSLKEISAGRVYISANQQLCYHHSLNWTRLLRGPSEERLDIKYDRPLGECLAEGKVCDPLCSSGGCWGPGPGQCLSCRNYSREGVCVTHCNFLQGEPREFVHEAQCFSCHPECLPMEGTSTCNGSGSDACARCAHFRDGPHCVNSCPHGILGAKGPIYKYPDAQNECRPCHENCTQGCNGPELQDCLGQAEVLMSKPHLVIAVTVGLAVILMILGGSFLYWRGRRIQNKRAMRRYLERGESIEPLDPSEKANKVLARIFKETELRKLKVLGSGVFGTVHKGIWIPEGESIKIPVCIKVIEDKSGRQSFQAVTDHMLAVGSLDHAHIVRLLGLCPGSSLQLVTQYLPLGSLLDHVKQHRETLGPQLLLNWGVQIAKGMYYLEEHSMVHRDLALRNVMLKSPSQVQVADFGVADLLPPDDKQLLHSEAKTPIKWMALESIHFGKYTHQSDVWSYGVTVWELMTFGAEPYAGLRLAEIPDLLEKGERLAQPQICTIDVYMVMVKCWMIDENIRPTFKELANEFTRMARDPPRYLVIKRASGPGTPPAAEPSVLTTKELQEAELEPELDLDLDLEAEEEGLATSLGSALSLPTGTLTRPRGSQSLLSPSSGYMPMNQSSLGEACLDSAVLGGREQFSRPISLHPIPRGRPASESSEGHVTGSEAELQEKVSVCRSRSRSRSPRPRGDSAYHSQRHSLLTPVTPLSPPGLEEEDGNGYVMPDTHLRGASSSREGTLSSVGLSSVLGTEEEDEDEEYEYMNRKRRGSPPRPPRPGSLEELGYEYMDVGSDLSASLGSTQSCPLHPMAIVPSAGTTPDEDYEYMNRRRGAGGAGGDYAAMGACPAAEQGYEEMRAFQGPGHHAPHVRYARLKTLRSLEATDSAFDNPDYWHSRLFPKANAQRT
T2 sequence (P06494 23-1257 partner): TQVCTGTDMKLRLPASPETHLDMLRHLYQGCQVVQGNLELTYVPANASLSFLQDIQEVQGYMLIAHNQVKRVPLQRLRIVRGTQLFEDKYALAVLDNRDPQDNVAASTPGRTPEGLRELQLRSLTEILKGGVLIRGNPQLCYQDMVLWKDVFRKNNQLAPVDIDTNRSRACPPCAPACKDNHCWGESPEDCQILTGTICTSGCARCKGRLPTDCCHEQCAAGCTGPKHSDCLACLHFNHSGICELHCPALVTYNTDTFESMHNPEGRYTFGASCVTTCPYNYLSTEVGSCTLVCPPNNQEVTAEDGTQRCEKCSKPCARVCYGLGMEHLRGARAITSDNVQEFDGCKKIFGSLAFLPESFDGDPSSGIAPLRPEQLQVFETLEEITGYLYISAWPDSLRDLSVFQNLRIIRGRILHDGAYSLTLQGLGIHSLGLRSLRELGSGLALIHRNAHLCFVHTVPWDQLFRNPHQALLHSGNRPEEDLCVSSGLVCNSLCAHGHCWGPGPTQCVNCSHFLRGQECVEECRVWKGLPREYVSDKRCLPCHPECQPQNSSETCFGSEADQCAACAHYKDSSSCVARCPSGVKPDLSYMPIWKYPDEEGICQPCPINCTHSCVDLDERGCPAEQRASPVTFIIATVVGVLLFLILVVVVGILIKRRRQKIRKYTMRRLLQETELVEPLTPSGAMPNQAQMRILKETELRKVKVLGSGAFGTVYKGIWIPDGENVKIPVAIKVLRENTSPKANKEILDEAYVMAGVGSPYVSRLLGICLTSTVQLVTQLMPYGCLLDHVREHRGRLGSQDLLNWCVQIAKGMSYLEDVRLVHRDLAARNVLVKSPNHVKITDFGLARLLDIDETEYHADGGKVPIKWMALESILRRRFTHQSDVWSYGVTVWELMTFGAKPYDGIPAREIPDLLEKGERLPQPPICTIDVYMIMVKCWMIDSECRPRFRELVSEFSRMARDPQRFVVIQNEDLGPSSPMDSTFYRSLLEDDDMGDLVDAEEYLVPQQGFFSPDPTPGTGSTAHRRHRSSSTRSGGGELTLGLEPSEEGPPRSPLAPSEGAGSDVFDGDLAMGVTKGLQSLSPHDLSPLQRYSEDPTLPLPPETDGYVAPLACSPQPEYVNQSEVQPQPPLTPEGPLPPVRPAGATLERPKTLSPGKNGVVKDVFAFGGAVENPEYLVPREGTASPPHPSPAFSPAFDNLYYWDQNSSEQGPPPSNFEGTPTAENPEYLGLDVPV
T1 sequence (Q62956 26-1308): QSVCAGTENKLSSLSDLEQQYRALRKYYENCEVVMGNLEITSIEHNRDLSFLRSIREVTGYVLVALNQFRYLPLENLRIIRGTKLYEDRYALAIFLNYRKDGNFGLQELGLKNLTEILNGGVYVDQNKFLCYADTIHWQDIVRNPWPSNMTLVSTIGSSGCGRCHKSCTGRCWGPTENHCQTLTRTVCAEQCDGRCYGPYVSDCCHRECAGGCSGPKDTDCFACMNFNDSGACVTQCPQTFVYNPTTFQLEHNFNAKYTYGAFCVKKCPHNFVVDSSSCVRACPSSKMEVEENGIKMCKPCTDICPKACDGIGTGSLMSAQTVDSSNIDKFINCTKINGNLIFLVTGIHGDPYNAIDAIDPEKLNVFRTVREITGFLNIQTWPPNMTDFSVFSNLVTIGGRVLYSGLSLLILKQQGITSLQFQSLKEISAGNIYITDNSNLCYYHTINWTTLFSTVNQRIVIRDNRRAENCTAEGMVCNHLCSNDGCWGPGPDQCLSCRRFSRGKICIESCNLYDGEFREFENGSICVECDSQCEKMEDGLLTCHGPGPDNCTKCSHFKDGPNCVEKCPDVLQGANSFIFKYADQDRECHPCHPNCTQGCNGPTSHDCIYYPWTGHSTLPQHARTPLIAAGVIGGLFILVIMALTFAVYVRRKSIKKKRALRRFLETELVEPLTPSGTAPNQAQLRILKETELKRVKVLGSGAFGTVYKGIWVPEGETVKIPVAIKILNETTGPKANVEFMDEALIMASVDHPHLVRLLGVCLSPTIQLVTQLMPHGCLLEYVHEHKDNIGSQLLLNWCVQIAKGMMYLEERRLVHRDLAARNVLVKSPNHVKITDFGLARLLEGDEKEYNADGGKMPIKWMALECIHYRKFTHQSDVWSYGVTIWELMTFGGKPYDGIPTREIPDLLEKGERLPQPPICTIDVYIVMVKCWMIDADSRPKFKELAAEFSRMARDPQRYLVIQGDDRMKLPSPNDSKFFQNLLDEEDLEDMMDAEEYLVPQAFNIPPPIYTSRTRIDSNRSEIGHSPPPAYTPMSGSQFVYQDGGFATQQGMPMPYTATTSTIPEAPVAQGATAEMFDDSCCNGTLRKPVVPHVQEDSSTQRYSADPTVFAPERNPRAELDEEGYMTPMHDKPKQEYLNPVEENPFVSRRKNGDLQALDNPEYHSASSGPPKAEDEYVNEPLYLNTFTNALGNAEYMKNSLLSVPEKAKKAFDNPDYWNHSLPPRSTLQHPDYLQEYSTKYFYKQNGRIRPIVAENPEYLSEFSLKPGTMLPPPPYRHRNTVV
T1 sequence (P06494 23-1257 partner): as the sequence (P06494 23-1257 partner) above

B1: huNRG1(S177-F229)(NRGE1C) 6xHis: 6xHis-tagged NRG1 variant SEQ ID NO:117 (protein)
chain: SHLVKCGEKHKSFCVNGGECFMIEGPSNPSRYLCKCPNEFTGDRCQEDFMASFGGGGEGGGGAGGGGHHHHHH
modifications: 6xHis tag; huNRG1(S177-F229)(NRGE1C) 6xHis
Regarding B1, in the experiment with ErbB4, the EC50 turned out to be 1.44 nM, the “Selectivity SC/CM” value is recorded as greater than 10000 and the “CM % Agonism AVG” value was 106%. Moreover, in the experiment with ErbB3, the concentration for a half-maximal effect (EC50) came to 10000 nM.

B2: huNRG1(S177-F229)(NRGE1C) (D48T_F49Q_M50I) 6xHis: 6xHis-tagged NRG1 variant SEQ ID NO:118 (protein)
chain: B1 chain with D48T, F49Q, M50I
modifications: 6xHis tag; huNRG1(S177-F229)(NRGE1C) (D48T_F49Q_M50I) 6xHis
B2: in the experiment with ErbB4, the EC50 turned out to be 0.712 nM, the “Selectivity SC/CM” value is on record as greater than 10000 and the “CM % Agonism AVG” value amounted to 105.7%. In the experiment with ErbB3, the EC50 worked out at 10000 nM.

B3: huNRG1(S177-F229)(NRGE1C) (E47K_D48T_F49S_M50L) 6xHis: 6xHis-tagged NRG1 variant SEQ ID NO:120 (protein)
chain: B1 chain with E47K, D48T, F49S, M50L
modifications: 6xHis tag; huNRG1(S177-F229)(NRGE1C) (E47K_D48T_F49S_M50L) 6xHis
Turning to B3, in the experiment with ErbB4, the EC50 was 0.825 nM, the “Selectivity SC/CM” value was greater than 10000 and the “CM % Agonism AVG” value is 91.82%. Also, in the experiment with ErbB3, the EC50 came to 10000 nM.

B4: huNRG1(S177-F229)(NRGE1C) (E47S_D48A_F49L_M50T) 6xHis: 6xHis-tagged NRG1 variant SEQ ID NO:122; ErbB4 selective agonist without Fc of Example 3 (protein)
chain: B1 chain with E47S, D48A, F49L, M50T
modifications: 6xHis tag; huNRG1(S177-F229)(NRGE1C) (E47S_D48A_F49L_M50T) 6xHis
Consider B4, for which, in the experiment with ErbB4, the concentration giving a half-maximal response (EC50) turned out to be 0.695 nM, the “Selectivity SC/CM” value is on record as greater than 10000 and the “CM % Agonism AVG” value is listed as 85.89%. For the same molecule, in the experiment with ErbB3, the EC50 came out at 10000 nM.

B5: huNRG1(S177-F229)(NRGE1D) 6xHis: 6xHis-tagged NRG1 variant SEQ ID NO:126 (protein)
chain: B1 chain with K9S, F21Y, I23V, P26S, N28I
modifications: 6xHis tag; huNRG1(S177-F229)(NRGE1D) 6xHis
Turning to B5, in the experiment with ErbB4, the EC50 is 0.39 nM, the “Selectivity SC/CM” value was greater than 10000 and the “CM % Agonism AVG” value is 90.65%. Further, the EC50 in the experiment with ErbB3 was determined as 10000 nM.

B6: huNRG1(S177-F229)(NRGE1C) (E47A_D48P_F49H_M50I) 6xHis: 6xHis-tagged NRG1 variant SEQ ID NO:119 (protein)
chain: B1 chain with E47A, D48P, F49H, M50I
modifications: 6xHis tag; huNRG1(S177-F229)(NRGE1C) (E47A_D48P_F49H_M50I) 6xHis
Turning to B6, in the experiment with ErbB4, the concentration for a half-maximal effect (EC50) amounted to 1.1 nM, the “Selectivity SC/CM” value was greater than 10000 and the “CM % Agonism AVG” value came out at 96.47%. The half-maximal effective concentration (EC50) with ErbB3 came to 10000 nM.

B7: huNRG1(S177-F229)(NRGE1C) (E47S_D48T_F49R_M50V) 6xHis: 6xHis-tagged NRG1 variant SEQ ID NO:123 (protein)
chain: B1 chain with E47S, D48T, F49R, M50V
modifications: 6xHis tag; huNRG1(S177-F229)(NRGE1C) (E47S_D48T_F49R_M50V) 6xHis
As for B7, in the experiment with ErbB4, the EC50 turned out to be 0.58 nM, the “Selectivity SC/CM” value is given as greater than 10000 and the “CM % Agonism AVG” value worked out at 87.47%. For the same molecule, in the experiment with ErbB3, the concentration for a half-maximal effect (EC50) was 10000 nM.

B8: huNRG1(S177-S228)(NRGE1C)::3x(G4Q)::huFcSEFL2 (Pb): Fc fusion of NRG1 variant SEQ ID NO:116 (protein)
chain: STYRCVSVLTVLHQDWLNGKEYKCKVSNKALPAPIEKTISKAKGQPREPQVYTLPPSREEMTKNQVSLTCLVKGFYPSDIAVEWESNGQPENNYKTTPPVLDSDGSFFLYSKLTVDKSRWQQGNVFSCSVMHEALHNHYTQKSLSLSPGK
modifications: huNRG1(S177-S228)(NRGE1C)::3x(G4Q)::huFcSEFL2 (Pb)
For the molecule B8, the EC50 with ErbB4 came out at 14.8 nM; with ErbB3, 783 nM. Besides, in the experiment with ErbB4, the “Selectivity SC/CM” value came out at 53.

B9: huNRG1(S177-S228)(wt)::3x(G4Q)::huFcSEFL2 (Pb): Fc fusion of wild-type NRG1 fragment S177-S228 (protein)
chain: B8 chain
modifications: huNRG1(S177-S228)(wt)::3x(G4Q)::huFcSEFL2 (Pb)
Consider B9, for which, in the experiment with ErbB4, the EC50 came to 2.6 nM and the “Selectivity SC/CM” value came to 0.03. The EC50 with ErbB3 stood at 0.07 nM.

B10: :huNRG1(S177-F229)(NRGE1C)::2X(G4A)G4::huFcSEFL2v131(+): Fc fusion of NRG1 variant SEQ ID NO:117 (protein)
chain: SHLVKCGEKHKSFCVNGGECFMIEGPSNPSRYLCKCPNEFTGDRCQEDFMASFGGGGAGGGGAGGGGDKTHTCPPCPAPELLGGPSVFLFPPKPKDTLMISRTPEVTCVVVDVSHEDPEVKFNWYVDGVEVHNAKTKPCEEQYGSTYRCVSVLTVLHQDWLNGKEYKCKVSNKALPAPIEKTISKAKGQPREPQVYTLPPSREKMTKNQVSLTCLVKGFYPSDIAVEWESNGQPENNYKTTPPVLKSDGSFFLYSKLTVDKSRWQQGNVFSCSVMHEALHNHYTQKSLSLSPGKDKTHTCPPCPAPELLGGPSVFLFPPKPKDTLMISRTPEVTCVVVDVSHEDPEVKFNWYVDGVEVHNAKTKPCEEQYGSTYRCVSVLTVLHQDWLNGKEYKCKVSNKALPAPIEKTISKAKGQPREPQVYTLPPSREEMTENQVSLTCLVEGFYPSDIAVEWESNGQPENNYETTPPVLDSDGSFFLYSDLTVDKSRWQQGNVFSCSVMHEALHNHYTQKSLSLSPGK
modifications: huNRG1(S177-F229)(NRGE1C) ::2X(G4A)G4::huFcSEFL2v131(+)
As to B10, in the experiment with ErbB4, the EC50 was found to be 3.4 nM, the “Selectivity SC/CM” value is given as greater than 10000 and the “CM % Agonism AVG” value turned out to be 91.6%. The “Schwann cells (SC) (ErbB3) Avg EC50 (M)” value in the experiment with ErbB3 was “inactive”.

B11: :huNRG1(S177-F229)(NRGE1D)::2X(G4E)G4::huFcSEFL2v131(+): Fc fusion of NRG1 variant SEQ ID NO:126 (protein)
chain: B10 chain with K9S, F21Y, I23V, P26S, N28I, A58E, A63E
modifications: huNRG1(S177-F229)(NRGE1D) ::2X(G4E)G4::huFcSEFL2v131(+)
On to B11, for which, in the experiment with ErbB4, the EC50 stood at 1.9 nM, the “Selectivity SC/CM” value was greater than 10000 and the “CM % Agonism AVG” value stood at 91.9%. Further, in the experiment with ErbB3, the “Schwann cells (SC) (ErbB3) Avg EC50 (M)” value was “inactive”.

B12: :huNRG1(S177-F229)(NRGE1C)::2X(G4E)G4::huFcSEFL2v131(+): Fc fusion of NRG1 variant SEQ ID NO:117 (protein)
chain: B10 chain with A58E, A63E
modifications: huNRG1(S177-F229)(NRGE1C) ::2X(G4E)G4::huFcSEFL2v131(+)
With B12, in the experiment with ErbB4, the 50% effective concentration (EC50) was determined as 2.9 nM, the “Selectivity SC/CM” value is greater than 10000 and the “CM % Agonism AVG” value is on record as 94%. Besides, in the experiment with ErbB3, the “Schwann cells (SC) (ErbB3) Avg EC50 (M)” value was “inactive”.

B13: :huNRG1(S177-F229)(NRGE1D)::2X(G4A)G4::huFcSEFL2v131(+): Fc fusion of NRG1 variant SEQ ID NO:126 (protein)
chain: B10 chain with K9S, F21Y, I23V, P26S, N28I
modifications: huNRG1(S177-F229)(NRGE1D) ::2X(G4A)G4::huFcSEFL2v131(+)
On to B13, for which, in the experiment with ErbB4, the EC50 was found to be 2 nM, the “Selectivity SC/CM” value is greater than 10000 and the “CM % Agonism AVG” value is listed as 87.1%. The “Schwann cells (SC) (ErbB3) Avg EC50 (M)” value with ErbB3 is “inactive”.

As usually defined, the EC50 is the concentration that produces a half-maximal response.
